Columns and labels:
XQ2 [1] = molecular target: T1, XQ2 (macrocyclic (cyclic) peptide); assay: SPR
XQ2 [2] = molecular target: T1, XQ2; assay: MST; 2 M (NH4)2SO4

Binder | Kd (XQ2 [1]) [µM] | Kd (XQ2 [2]) [µM]
N-terminally truncated human cGAS (hcGAS-ΔN, residues 147–522) (domain or fragment) PVSAPILVRRDAAPGASKLRAVLEKLKLSRDDISTAAGMVKGVVDHLLLRLKCDSAFRGVGLLNTGSYYEHVKISAPNEFDVMFKLEVPRIQLEEYSNTRAYYFVKFKRNPKENPLSQFLEGEILSASKMLSKFRKIIKEEINDIKDTDVIMKRKRGGSPAVTLLISEKISVDITLALESKSSWPASTQEGLRIQNWLSAKVRKQLRLKPFYLVPKHAKEGNGFQEETWRLSFSHIEKEILNNHGKSKTCCENKEEKCCRKDCLKLMKYLLEQLKERFKDKKHLDKFSSYHVKTAFFHVCTQNPQDSQWDRKDLGLCFDNCVTYFLQCLRTEKLENYFIPEFNLFSSNLIDKRSKEFLTKQIEYERNNEFPVFDEF | 86.5 | 
fluorescent labeled hcGAS (enzyme, fluorescent label (dye and site not stated)) MQPWHGKAMQRASEAGATAPKASARNARGAPMDPTESPAAPEAALPKAGKFGPARKSGSRQKKSAPDTQERPPVRATGARAKKAPQRAQDTQPSDATSAPGAEGLEPPAAREPALSRAGSCRQRGARCSTKPRPPPGPWDVPSPGLPVSAPILVRRDAAPGASKLRAVLEKLKLSRDDISTAAGMVKGVVDHLLLRLKCDSAFRGVGLLNTGSYYEHVKISAPNEFDVMFKLEVPRIQLEEYSNTRAYYFVKFKRNPKENPLSQFLEGEILSASKMLSKFRKIIKEEINDIKDTDVIMKRKRGGSPAVTLLISEKISVDITLALESKSSWPASTQEGLRIQNWLSAKVRKQLRLKPFYLVPKHAKEGNGFQEETWRLSFSHIEKEILNNHGKSKTCCENKEEKCCRKDCLKLMKYLLEQLKERFKDKKHLDKFSSYHVKTAFFHVCTQNPQDSQWDRKDLGLCFDNCVTYFLQCLRTEKLENYFIPEFNLFSSNLIDKRSKEFLTKQIEYERNNEFPVFDEF |  | 1.8

Reference: paper PMC10545747 (2023)
